# Measured values published in patent publication US20200361992A1 (PROTAGONIST THERAPEUTICS, published 2020).
# Starred links: 1 amine or outer side, 2 acyl side, 3 side chain; linkers in the order of their positions; H or OH if unused. Positions of bridges follow the written chain, without caps; N, C: chain ends. Non-standard residues stand in square brackets, D forms with d. Groups on a side chain read outwards from the residue. Primed or numbered codes have the meaning given here. *: point of attachment. PEG4′ = bifunctional PEG linker with 4 polyethylene glycol units; PEG12 = NCCOCCOCCOCCOCCOCCOCCOCCOCCOCCOCCOCCOCCC(=O)O; Phe(4-tBu) = CC(C)(C)c1ccc(C[C@H](N)C(=O)O)cc1; Phe(3,4-F2) = N[C@@H](Cc1ccc(F)c(F)c1)C(=O)O; Docosanoyl = CCCCCCCCCCCCCCCCCCCCCC(=O)*; Dip = N[C@H](C(=O)O)C(c1ccccc1)c1ccccc1; γGlu = O=C(O)[C@H](CCC(=O)[*:2])N[*:1]; 2Nal = N[C@@H](Cc1ccc2ccccc2c1)C(=O)O; AEF = NCCOc1ccc(C[C@H](N)C(=O)O)cc1; Palmitoyl = CCCCCCCCCCCCCCCC(=O)*; Pen = CC(C)(S)[C@H](N)C(=O)O; Isovaleryl = CC(C)CC(=O)*; PEG2′ = not defined here; PEG8′ = not defined here; Npc = nipecotic acid; Ahx = NCCCCCC(=O)O
# T1: human ferroportin (SLC40A1) fused with GFP, stably expressed in HEK293 cells (human, UniProt Q9NP59 1-571)
# T1 sequence (looked up): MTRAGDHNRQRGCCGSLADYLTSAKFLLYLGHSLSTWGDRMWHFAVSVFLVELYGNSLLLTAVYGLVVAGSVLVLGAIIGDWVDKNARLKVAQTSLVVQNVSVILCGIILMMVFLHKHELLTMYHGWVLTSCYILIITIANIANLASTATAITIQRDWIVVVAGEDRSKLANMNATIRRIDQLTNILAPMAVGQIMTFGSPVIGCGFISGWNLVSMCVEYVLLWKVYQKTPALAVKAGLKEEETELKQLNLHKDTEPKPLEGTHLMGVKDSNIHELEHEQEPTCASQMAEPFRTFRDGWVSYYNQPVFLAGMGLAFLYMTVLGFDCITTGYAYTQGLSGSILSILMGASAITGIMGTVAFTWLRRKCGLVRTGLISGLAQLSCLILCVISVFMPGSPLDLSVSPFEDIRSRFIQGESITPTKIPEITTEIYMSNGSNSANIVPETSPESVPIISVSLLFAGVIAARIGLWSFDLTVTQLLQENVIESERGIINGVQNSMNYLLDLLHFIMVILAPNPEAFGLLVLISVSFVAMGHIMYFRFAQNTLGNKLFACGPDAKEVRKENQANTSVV
# B1: Compd ID 105 (peptide)
# peptide: DTHXPCIKXKKC
# modifications: Isovaleric acid-D-T-H-[Dpa]-P-C-I-[(D)Lys]-[b-homoPhe]-Lys[PEG11-Palm]-[(D)Lys]-[Cys]-NH2
# B2: Compd ID 122 (peptide)
# peptide: DTHXPCIKXKKC
# modifications: Isovaleric acid-DTH-[Dpa]-PCI-[(D)Lys]-[b-hPhe]-[Lys(Peg11-Palm)]-[(D)Lys]-C-NH2
# B3: Compd ID 134 (peptide)
# peptide: DTHXPCIKFKKX
# modifications: Isovaleric acid-DTH-[Dpa]-PCI-[(D)Lys]-F-[Lys(Peg11-Palm)]-[(D)Lys]-[N-Me-Cys]-NH2
# B4: Compd ID 120 (peptide)
# peptide: DTHXPCIKFKKC
# modifications: Isovaleric acid-DTH-[Phe(4-COOH)-PCI-[(D)Lys]-F-[Lys(Peg11-Palm)]-[(D)Lys]-C-NH2
# Molecular target: T1, human ferroportin (SLC40A1) fused with …
# Test: cell-based or functional assay
row,FPN IC50 [nM],Binder
1,41,Isovaleryl-DTHFPCI[dK]FK([PEG12-Palmitoyl])K[dC]-NH2 (disulfide 6-12 (inferred)) [Compd ID 97]
2,27,Isovaleryl-DTHFPCI[dK]FK([PEG2′-PEG2′-C18 acid])KC-NH2 (disulfide 6-12 (inferred)) [Compd ID 89]
3,27,DTHXPCIKFKKC (Isovaleric acid-D-T-H-[Dpa]-P-C-I-[(D)Lys]-F-Lys[PEG11-Palm]-K-[Cys]-NH2) [Compd ID 104]
4,30,Isovaleryl-DTHFPCI[dK]FK(Docosanoyl)KC-NH2 (disulfide 6-12 (inferred)) [Compd ID 96]
5,2,Isovaleryl-DTH[Dip][Npc]CI[dK]FK([PEG12-Palmitoyl])KC-NH2 (disulfide 6-12 (inferred)) [Compd ID 109]
6,17,DTHFPCIKFKPRC (Isovaleric acid-DTHFPCIKF-Lys[PEG11-Palm]-PRC-NH2) [Compd ID 6]
7,40,Isovaleryl-DTHFPCI[dK]FK([PEG12-Palmitoyl])K[Pen]-NH2 (disulfide 6-12 (inferred)) [Compd ID 98]
8,10,DTHFPCIKFKPC (Isovaleric acid-DTHFPCIKF-Lys[PEG11-Palm]-PC-NH2) [Compd ID 7]
9,15,Isovaleryl-DTHFPCI[dK]FK([PEG2′-Palmitoyl])KC-NH2 (disulfide 6-12 (inferred)) [Compd ID 87]
10,30,DTHFPCIKFKPRSC (Isovaleric acid-DTHFPCIKF-Lys[PEG11-Palm]-PRSC-NH2) [Compd ID 5]
11,40,Isovaleryl-DTHFPCI[dK]FK([PEG12-Palmitoyl])KC[dK]-NH2 (disulfide 6-12 (inferred)) [Compd ID 83]
12,18,Isovaleryl-DTHFPCI[dK]FK([PEG4′-PEG4′-Palmitoyl])KC-NH2 (disulfide 6-12 (inferred)) [Compd ID 93]
13,11,Isovaleryl-DTHFPCI[dK]FK([PEG2′-PEG2′-Ahx-Palmitoyl])KC-NH2 (disulfide 6-12 (inferred)) [Compd ID 90]
14,13,Isovaleryl-DTHFPCI[dK]FK([PEG12-Palmitoyl])[dK]C-NH2 (disulfide 6-12 (inferred)) [Compd ID 82]
15,21,DTHFPCIKFKXC (Isovaleric acid-DTHFPCI-[(D)Lys]-F-Lys[PEG11-Palm]-Dap-[Cys]-NH2) [Compd ID 99]
16,9,Isovaleryl-DTHFPCI[dK]FK([Ahx-Palmitoyl])KC-NH2 (disulfide 6-12 (inferred)) [Compd ID 86]
17,14,Isovaleryl-DTHFPCI[dK]FK([PEG4′-Palmitoyl])KC-NH2 (disulfide 6-12 (inferred)) [Compd ID 91]
18,14,DTHXPCIKXKKC (Isovaleric acid-DTH-[Dpa]-PCI-[(D)Lys]-[Dpa]-[Lys(Peg11-Palm)]-[(D)Lys]-C-NH2) [Compd ID 131]
19,6,Isovaleryl-DTHF[Npc]CI[dK]FK([PEG12-Palmitoyl])[dK]C-NH2 (disulfide 6-12 (inferred)) [Compd ID 118]
20,169,Isovaleryl-DIH[Dip]PCI[dK]FK([PEG12-Palmitoyl])[dK]C-NH2 (disulfide 6-12 (inferred)) [Compd ID 130]
21,6,DTHFPCIKFKC (Isovaleric acid-DTHFPCIKF-Lys[PEG11-Palm]-C-NH2) [Compd ID 8]
22,3,DTHFPCIKFKKX (Isovaleric acid-DTH-F-PCI-[(D)Lys]-F-[Lys(Peg11-Palm)]-K-[a-MeCysl-NH2) [Compd ID 114]
23,13.5,DTHXPCIKFKKX (Isovaleric acid-DTH-[Dpa]-PCI-[(D)Lys]-F-[Lys(Peg11-Palm)]-K-[N-Me-Cys]-NH2) [Compd ID 133]
24,4,Isovaleryl-DTH[Dip][Npc]CI[dK][2Nal]K([PEG12-Palmitoyl])KC-NH2 (disulfide 6-12 (inferred)) [Compd ID 112]
25,204,DTHXPCIKFKKC (Isovaleric acid-DTH-[a-MePhe]-PCI-[(D)Lys]-F-[Lys(Peg11-Palm)]-[(D)Lys]-C-NH2) [Compd ID 128]

row,FPN IC50 [nM],Binder
1,11,DTHFPXIKFKKC (Isovaleric acid-DTHFP-[a-MeCys]-I-[(D)Lys]-F-[Lys(Peg11-Palm)]-K-C-NH2) [Compd ID 116]
2,27,Isovaleryl-DTHFPCI[dK]FK([PEG12-Palmitoyl])RC[dR]-NH2 (disulfide 6-12 (inferred)) [Compd ID 85]
3,24,DTHFPCIKXKKC (Isovaleric acid-DTHFPCI-[(D)Lys]-[b-homoPhe]-Lys[PEG11-Palm]-K-[Cys]-NH2) [Compd ID 101]
4,16,DTHFPCIKXKKC (Isovaleric acid-DTHFPCI-[(D)Lys]-[Dpa]-Lys[PEG11-Palm]-K-[Cys]-NH2) [Compd ID 100]
5,4,DTHXPCIKFKKX (Isovaleric acid-DTH-[Dpa]-PCI-[(D)Lys]-F-[Lys(Peg11-Palm)]-[(D)Lys]-Pen-NH2) [Compd ID 132]
6,2,Isovaleryl-DTH[Dip][Npc]CI[dK]FK([PEG12-Palmitoyl])[dK]C-NH2 (disulfide 6-12 (inferred)) [Compd ID 117]
7,17,DTHFPCIKXKKC (Isovaleric acid-DTHFPCI-[(D)Lys]-[Nal]-Lys[PEG11-Palm]-K-[Cys]-NH2) [Compd ID 102]
8,3,"Isovaleryl-DTH[Dip][Npc]CI[dK][Phe(3,4-F2)]K([PEG12-Palmitoyl])KC-NH2 (disulfide 6-12 (inferred)) [Compd ID 127]"
9,40,Isovaleryl-DTHFPCIFK([PEG12-Palmitoyl])KC-NH2 (disulfide 6-11 (inferred)) [Compd ID 106]
10,31,B1
11,3,Isovaleryl-DTH[Dip][Npc]CI[dK][Phe(4-tBu)]K([PEG12-Palmitoyl])KC-NH2 (disulfide 6-12 (inferred)) [Compd ID 110]
12,5,B2
13,60,Isovaleryl-DTHFPCI[dK]F[dK]([PEG12-Palmitoyl])[dK]C-NH2 (disulfide 6-12 (inferred)) [Compd ID 107]
14,4,DTHFPXIKFKKX (Isovaleric acid-DTHFP-[a-MeCys]-I-[(D)Lys]-F-[Lys(Peg11-Palm)]-K-[a-MeCys]-NH2) [Compd ID 115]
15,20,DTHFPCIKXKKC (Isovaleric acid-DTHFPCI-[(D)Lys]-[bhomoPhe]-Lys[PEG11-Palm]-K-[Cys]-NH2) [Compd ID 103]
16,22.5,B3
17,13,Isovaleryl-DTHFPCI[dK]FK([PEG2′-PEG2′-Palmitoyl])KC-NH2 (disulfide 6-12 (inferred)) [Compd ID 88]
18,9,Isovaleryl-DTHFPCI[dK]FK([PEG4′-γGlu-Palmitoyl])KC-NH2 (disulfide 6-12 (inferred)) [Compd ID 94]
19,16,Isovaleryl-DTHFPCI[dK]FK([PEG12-Palmitoyl])HC[dH]-NH2 (disulfide 6-12 (inferred)) [Compd ID 84]
20,21,Isovaleryl-DTHFPCI[dK]FK([PEG4′-Ahx-Palmitoyl])KC-NH2 (disulfide 6-12 (inferred)) [Compd ID 92]
21,28,Isovaleryl-DTHFPCI[dK]FK([PEG8′-Palmitoyl])KC-NH2 (disulfide 6-12 (inferred)) [Compd ID 95]
22,> 1000,B4
23,> 3000,Isovaleryl-DTH[Dip][Npc]CI[dK][AEF]K([PEG12-Palmitoyl])KC-NH2 (disulfide 6-12 (inferred)) [Compd ID 111]
24,9,DTHXPCIKFKKC (Isovaleric acid-DTH-[b-hPhe]-PCI-[(D)Lys]-F-[Lys(Peg11-Palm)]-[(D)Lys]-C-NH2) [Compd ID 121]
